In test [1] the target is T1, human FcγRIIa type H extracellular domain with C-terminal His tag (human, UniProt P12318 34-217).
T1 construct: extracellular domain; also called FcγRIIaH; FcgRIIaH
T1 sequence (looked up): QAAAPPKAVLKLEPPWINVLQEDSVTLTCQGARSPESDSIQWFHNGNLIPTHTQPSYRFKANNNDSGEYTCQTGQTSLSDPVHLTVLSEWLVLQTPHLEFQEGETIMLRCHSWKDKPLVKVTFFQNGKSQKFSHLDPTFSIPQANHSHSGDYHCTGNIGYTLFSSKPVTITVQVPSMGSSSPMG
The test is described as follows: SPR (Biacore).

Test [2] deals with T2, human FcγRIIa type H (H131) extracellular domain with C-terminal His tag (human, UniProt P12318 34-217).
T2 construct: extracellular domain; also called FcγRIIaH; not shown: His tag at the C terminus
T2 sequence (looked up): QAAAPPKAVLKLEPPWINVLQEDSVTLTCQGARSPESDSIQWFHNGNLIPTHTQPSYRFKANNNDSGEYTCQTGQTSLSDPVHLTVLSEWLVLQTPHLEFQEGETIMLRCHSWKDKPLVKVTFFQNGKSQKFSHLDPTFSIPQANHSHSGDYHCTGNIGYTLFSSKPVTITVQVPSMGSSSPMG
As to the kind of experiment: SPR (Biacore), antibody captured, FcγR analyte.

Test [3] has as its target T3, human FcγRIa extracellular domain (human, UniProt P12314 16-292).
T3 construct: also called CD64; not shown: His tag at the C terminus
As to the kind of experiment: SPR (Biacore), antibody captured on chip, FcγR extracellular domain as analyte, 25 C. (In general: Surface plasmon resonance follows binding to a sensor surface in real time, without labels.)

For test [4], the target named is T4, human FcγRIIa type R extracellular domain (human, UniProt P12318 34-217).
T4 construct: also called FcγRIIaR; FcγRIIa(R); not shown: His tag at the C terminus
T4 chain: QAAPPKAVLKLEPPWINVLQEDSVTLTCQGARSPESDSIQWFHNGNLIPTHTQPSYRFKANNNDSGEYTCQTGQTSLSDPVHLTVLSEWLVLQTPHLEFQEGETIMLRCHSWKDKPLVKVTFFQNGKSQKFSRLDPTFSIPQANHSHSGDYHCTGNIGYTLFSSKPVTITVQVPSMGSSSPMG
Described as above.

Test [5] deals with T5, human FcγRIIb extracellular domain (human, UniProt P31994 43-217).
T5 construct: also called FcγIIB; not shown: His tag at the C terminus
T5 sequence: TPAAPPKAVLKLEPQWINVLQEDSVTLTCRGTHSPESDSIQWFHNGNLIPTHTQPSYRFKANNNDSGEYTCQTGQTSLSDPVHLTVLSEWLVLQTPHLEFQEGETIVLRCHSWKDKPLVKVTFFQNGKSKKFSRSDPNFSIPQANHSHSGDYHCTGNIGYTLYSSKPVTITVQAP
The test is described as above.

Test [6] deals with T6, human FcγRIa extracellular domain with C-terminal His tag (human, UniProt P12314 16-292).
T6 construct: not shown: His tag at the C terminus
As to the kind of experiment: SPR (Biacore), antibody captured, FcγR analyte.

T6 sequence (P12314 16-292): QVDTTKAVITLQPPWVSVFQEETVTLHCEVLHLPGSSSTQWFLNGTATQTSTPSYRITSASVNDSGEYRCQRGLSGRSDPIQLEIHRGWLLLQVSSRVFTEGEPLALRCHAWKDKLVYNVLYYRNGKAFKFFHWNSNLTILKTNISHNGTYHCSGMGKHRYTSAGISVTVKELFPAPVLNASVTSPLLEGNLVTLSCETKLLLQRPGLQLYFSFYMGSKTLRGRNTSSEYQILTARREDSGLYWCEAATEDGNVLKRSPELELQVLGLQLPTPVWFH
T3 sequence (P12314 16-292): as above

B1: IL6R-BP089/IL6R-L (antibody, human IgG1, kappa)
heavy: QVQLQESGPGLVKPSETLSLTCAVSGHSISHDHAWSWVRQPPGEGLEWIGFISYSGITNYNPSLQGRVTISRDNSKNTLYLQMNSLRAEDTAVYYCARSLARTTAMDYWGEGTLVTVSSASTKGPSVFPLAPSSKSTSGGTAALGCLVKDYFPEPVTVSWNSGALTSGVHTFPAVLQSSGLYSLSSVVTVPSSSLGTQTYICNVNHKPSNTKVDKKVEPKSCDKTHTCPPCPAPEYLGGDSVFLFPPKPKDTLMISRTPEVTCVVVDVSHEDPEVKFNWYVDGVEVHNAKTKPREEQYNSTYRVVSVLTVLHQDWLNGKEYKCKVSNAALPKPIEKTISKAKGQPREPQVYTLPPSRDELTKNQVSLTCLVKGFYPSDIAVEWESNGQPENNYKTTPPVLDSDGSFFLYSKLTVDKSRWQQGNVFSCSVMHEALHNHYTQESLSLSP
light: not shown
notes: EU numbering; alterations on IL6R-B3; copies: 2 + 2
Usually Kd stands for the constant that tells how readily two partners part at equilibrium. B1: the Kd in test [1] was determined as 20 µM.

B2: IL6R-BP423/IL6R-L (antibody, human IgG1, kappa)
heavy: QVQLQESGPGLVKPSETLSLTCAVSGHSISHDHAWSWVRQPPGEGLEWIGFISYSGITNYNPSLQGRVTISRDNSKNTLYLQMNSLRAEDTAVYYCARSLARTTAMDYWGEGTLVTVSSASTKGPSVFPLAPSSKSTSGGTAALGCLVKDYFPEPVTVSWNSGALTSGVHTFPAVLQSSGLYSLSSVVTVPSSSLGTQTYICNVNHKPSNTKVDKKVEPKSCDKTHTCPPCPAPDLLGDDSVFLFPPKPKDTLMISRTPEVTCVVVDVAEEDGEVKFNWYVDGVEVHNAKTKPREEQYNSTYRVVSVLTVLHQDWLNGKEYKCKVSNKALPRPIEKTISKAKGQPREPQVYTLPPSRDELTKNQVSLTCLVKGFYPSDIAVEWESNGQPENNYKTTPPVLDSDGSFFLYSKLTVDKSRWQQGNVFSCSVMHEALHNHYTQESLSLSP
light: not shown
notes: alterations counted against IL6R-B3; copies: 2 + 2
On to B2, for which, in test [2], the Kd came out at 2 µM.

B3: IL6R-BP451/IL6R-L (antibody, human IgG1, kappa)
heavy: QVQLQESGPGLVKPSETLSLTCAVSGHSISHDHAWSWVRQPPGEGLEWIGFISYSGITNYNPSLQGRVTISRDNSKNTLYLQMNSLRAEDTAVYYCARSLARTTAMDYWGEGTLVTVSSASTKGPSVFPLAPSSKSTSGGTAALGCLVKDYFPEPVTVSWNSGALTSGVHTFPAVLQSSGLYSLSSVVTVPSSSLGTQTYICNVNHKPSNTKVDKKVEPKSCDKTHTCPPCPAPDLLGDDSVFLFPPKPKDTLMISRTPEVTCVVVDVAEEDGEVKFNWYVDGVEVHNAKTKPREEQYNSTYRVVSVLTVLHQDWLNGKEYKCKVSNKALPRPIEKTISKAKGQPREPQVYTLPPSRDELTKNQVSLTCLVKGFYPSDIAVEWESNGQPENNYKTTPGVLDSDGSFFLYSKLTVDKSRWQQGNVFSCSVMHEALHNHYTQESLSLSP
light: not shown
notes: P396G introduced into IL6R-BP423; copies: 2 + 2
For the molecule B3, the dissociation constant (Kd) in test [2] is 2 µM.

B4: IL6R-BP561/IL6R-L (antibody, human IgG1, kappa)
heavy: QVQLQESGPGLVKPSETLSLTCAVSGHSISHDHAWSWVRQPPGEGLEWIGFISYSGITNYNPSLQGRVTISRDNSKNTLYLQMNSLRAEDTAVYYCARSLARTTAMDYWGEGTLVTVSSASTKGPSVFPLAPSSKSTSGGTAALGCLVKDYFPEPVTVSWNSGALTSGVHTFPAVLQSSGLYSLSSVVTVPSSSLGTQTYICNVNHKPSNTKVDKKVEPKSCDKTHTCPPCPAPDLLGDDSVFLFPPKPKDTLMISRTPEVTCVVVDVSDEDGDVKFNWYVDGVEVHNAKTKPREEQDNSTYRVVSVLTVLHQDWLNGKEYKCKVSNKALPRPIEKTISKAKGQPREPQVYTLPPSRDELTKNQVSLTCLVKGFYPSDIAVEWESNGQPENNYKTTPPVLDSDGSFFLYSKLTVDKSRWQQGNVFSCSVMHEALHNHYTQESLSLSP
light: not shown
notes: copies: 2 + 2
On to B4, for which the dissociation constant (Kd) stood at 0.0094 µM in test [3], 0.51 µM in test [4] and 0.018 µM in test [5].

B5: IL6R-BP220/IL6R-L (antibody, human IgG1, kappa)
heavy: QVQLQESGPGLVKPSETLSLTCAVSGHSISHDHAWSWVRQPPGEGLEWIGFISYSGITNYNPSLQGRVTISRDNSKNTLYLQMNSLRAEDTAVYYCARSLARTTAMDYWGEGTLVTVSSASTKGPSVFPLAPSSKSTSGGTAALGCLVKDYFPEPVTVSWNSGALTSGVHTFPAVLQSSGLYSLSSVVTVPSSSLGTQTYICNVNHKPSNTKVDKKVEPKSCDKTHTCPPCPAPDLLGDDSVFLFPPKPKDTLMISRTPEVTCVVVDVSDEDGEVKFNWYVDGVEVHNAKTKPREEQDNSTYRVVSVLTVLHQDWLNGKEYKCKVSNKALPKPIEKTISKAKGQPREPQVYTLPPSRDELTKNQVSLTCLVKGFYPSDIAVEWESNGQPENNYKTTPPVLDSDGSFFLYSKLTVDKSRWQQGNVFSCSVMHEALHNHYTQESLSLSP
light: not shown
notes: copies: 2 + 2
In the case of B5, the Kd in test [6] is 0.02 µM.

B6: IL6R-BP176/IL6R-L (antibody, human IgG1, kappa)
heavy: QVQLQESGPGLVKPSETLSLTCAVSGHSISHDHAWSWVRQPPGEGLEWIGFISYSGITNYNPSLQGRVTISRDNSKNTLYLQMNSLRAEDTAVYYCARSLARTTAMDYWGEGTLVTVSSASTKGPSVFPLAPSSKSTSGGTAALGCLVKDYFPEPVTVSWNSGALTSGVHTFPAVLQSSGLYSLSSVVTVPSSSLGTQTYICNVNHKPSNTKVDKKVEPKSCDKTHTCPPCPAPDLLGGDSVFLFPPKPKDTLMISRTPEVTCVVVDVSHEDPEVKFNWYVDGVEVHNAKTKPREEQYNSTYRVVSVLTVLHQDWLNGKEYKCKVSNDALPKPIEKTISKAKGQPREPQVYTLPPSRDELTKNQVSLTCLVKGFYPSDIAVEWESNGQPENNYKTTPPVLDSDGSFFLYSKLTVDKSRWQQGNVFSCSVMHEALHNHYTQESLSLSP
light: not shown
notes: as for B1
In test [1], B6 showed a Kd of 30 µM.

B7: IL6R-BP246/IL6R-L (antibody, human IgG1, kappa)
heavy: QVQLQESGPGLVKPSETLSLTCAVSGHSISHDHAWSWVRQPPGEGLEWIGFISYSGITNYNPSLQGRVTISRDNSKNTLYLQMNSLRAEDTAVYYCARSLARTTAMDYWGEGTLVTVSSASTKGPSVFPLAPSSKSTSGGTAALGCLVKDYFPEPVTVSWNSGALTSGVHTFPAVLQSSGLYSLSSVVTVPSSSLGTQTYICNVNHKPSNTKVDKKVEPKSCDKTHTCPPCPAPDLLGDDSVFLFPPKPKDTLMISRTPEVTCVVVDVQDEDGEVKFNWYVDGVEVHNAKTKPREEQDNSTYRVVSVLTVLHQDWLNGKEYKCKVSNAALPRPIEKTISKAKGQPREPQVYTLPPSRDELTKNQVSLTCLVKGFYPSDIAVEWESNGQPENNYKTTPPVLDSDGSFFLYSKLTVDKSRWQQGNVFSCSVMHEALHNHYTQESLSLSP
light: not shown
notes: copies: 2 + 2
Take B7: the affinity in test [6], expressed as Kd, was 0.008 µM.

B8: IL6R-BP233/IL6R-L (antibody, human IgG1, kappa)
heavy: QVQLQESGPGLVKPSETLSLTCAVSGHSISHDHAWSWVRQPPGEGLEWIGFISYSGITNYNPSLQGRVTISRDNSKNTLYLQMNSLRAEDTAVYYCARSLARTTAMDYWGEGTLVTVSSASTKGPSVFPLAPSSKSTSGGTAALGCLVKDYFPEPVTVSWNSGALTSGVHTFPAVLQSSGLYSLSSVVTVPSSSLGTQTYICNVNHKPSNTKVDKKVEPKSCDKTHTCPPCPAPEYLGDDSVFLFPPKPKDTLMISRTPEVTCVVVDVSHEDGEVKFNWYVDGVEVHNAKTKPREEQYNSTYRVVSVLTVLHQDWLNGKEYKCKVSNKALPKPIEKTISKAKGQPREPQVYTLPPSRDELTKNQVSLTCLVKGFYPSDIAVEWESNGQPENNYKTTPPVLDSDGSFFLYSKLTVDKSRWQQGNVFSCSVMHEALHNHYTQESLSLSP
light: not shown
notes: copies: 2 + 2
In turn, B8 showed a Kd in test [6] of 0.07 µM.

B9: IL6R-BP129/IL6R-L (antibody, human IgG1, kappa)
heavy: QVQLQESGPGLVKPSETLSLTCAVSGHSISHDHAWSWVRQPPGEGLEWIGFISYSGITNYNPSLQGRVTISRDNSKNTLYLQMNSLRAEDTAVYYCARSLARTTAMDYWGEGTLVTVSSASTKGPSVFPLAPSSKSTSGGTAALGCLVKDYFPEPVTVSWNSGALTSGVHTFPAVLQSSGLYSLSSVVTVPSSSLGTQTYICNVNHKPSNTKVDKKVEPKSCDKTHTCPPCPAPDLLGGDSVFLFPPKPKDTLMISRTPEVTCVVVDVSHEDPEVKFNWYVDGVEVHNAKTKPREEQDNSTYRVVSVLTVLHQDWLNGKEYKCKVSNKALPKPIEKTISKAKGQPREPQVYTLPPSRDELTKNQVSLTCLVKGFYPSDIAVEWESNGQPENNYKTTPPVLDSDGSFFLYSKLTVDKSRWQQGNVFSCSVMHEALHNHYTQESLSLSP
light: not shown
notes: as for B1
B9: in test [1], the Kd turned out to be 40 µM.

B10: IL6R-BP249/IL6R-L (antibody, human IgG1, kappa)
heavy: QVQLQESGPGLVKPSETLSLTCAVSGHSISHDHAWSWVRQPPGEGLEWIGFISYSGITNYNPSLQGRVTISRDNSKNTLYLQMNSLRAEDTAVYYCARSLARTTAMDYWGEGTLVTVSSASTKGPSVFPLAPSSKSTSGGTAALGCLVKDYFPEPVTVSWNSGALTSGVHTFPAVLQSSGLYSLSSVVTVPSSSLGTQTYICNVNHKPSNTKVDKKVEPKSCDKTHTCPPCPAPDYLGDDSVFLFPPKPKDTLMISRTPEVTCVVVDVSDEDGEVKFNWYVDGVEVHNAKTKPREEQDNSTYRVVSVLTVLHQDWLNGKEYKCKVSNKALPRPIEKTISKAKGQPREPQVYTLPPSRDELTKNQVSLTCLVKGFYPSDIAVEWESNGQPENNYKTTPPVLDSDGSFFLYSKLTVDKSRWQQGNVFSCSVMHEALHNHYTQESLSLSP
light: not shown
notes: copies: 2 + 2
The molecule B10 yielded a Kd in test [6] of 0.007 µM.

Values taken from patent publication US20220389118A1 (Chugai, published 2022).
